# Test results from patent US7090842.
# How the values were obtained:
# [1] = molecular target: mouse anti-CEA monoclonal antibody 8019; assay: RIA, labeled Ab2 (3H1) on 8019-coated plates, no inhibitor
# [2] = molecular target: mouse anti-CEA monoclonal antibody 8019; assay: competition: Ab2 blocks binding of 8019 to CEA on MCF-7 cells
# [3] = molecular target: mouse anti-CEA monoclonal antibody 8019; assay: competition RIA, labeled Ab2 (3H1) on 8019-coated plates, 250 ng unlabeled 3H1
# [4] = molecular target: mouse anti-CEA monoclonal antibody 8019; assay: plate RIA, inhibition of radiolabeled 8019 binding to semipurified CEA, 25 ng 3H1
# [5] = molecular target: mouse anti-CEA monoclonal antibody 8019; assay: competition RIA, labeled Ab2 (3H1) on 8019-coated plates with 0.125 µg unlabeled 3H1
# [6] = molecular target: mouse anti-CEA monoclonal antibody 8019; assay: competition RIA, labeled Ab2 (3H1) bound to 8019-coated plates with 0.125 µg unlabeled 3H1
binder,measurement,setting,value
"monoclonal anti-idiotype antibody 3H1 (antibody, V domains shown) VH: EVQLQQSGPELVKPGASLKISCEASGYSLTAYTMNWVKQSHGKSLEWVGLINPFSGDTNYSQKFTGKATLTVDRSSSTAYMELLSLTSEDSAVYYCVITPVPYWYFDVWGAGTTVTVSS VL: DIKMTQSPSSMYASLGERVTITCKASQDINGYLNWFQQEPGKSPKTLIYRANRLIDGVPSRFSGSGSGQVYSLTISSLEYEDMGTYYCLQFDEFPWMFGGGTKLEIK",cpm Bound,[1],12000 cpm
same,percent inhibition,[2],> 85%
same,percent inhibition,[3],> 90%
same,percent inhibition,[4],100%
same,percent inhibition,[5],97%
same,cpm Bound,[6],439 cpm
